Source: patent US20170051048A1 (ALDERBIO, published 2017)

How the values were obtained:
[1] = target: T1, Homo sapiens Beta-Nerve Growth Factor (beta-NGF) (Homo sapiens, UniProt P01138 122-241); test: Antigen binding ELISA: biotinylated NGF on neutravidin plates, anti-human Fab-fragment HRP, OD 450 nm
T1 construct: Biotinylated and held on neutravidin plates in the ELISA; also called huNGF; B-NGF
Experimental: (§1) To identify and characterize antibodies and Fab fragments that bind to human NGF, antibody- and Fab-containing solutions were tested by ELISA. Briefly, neutravidin coated plates (Thermo Scientific), were blocked with ELISA buffer (0.1 mg/mL BSA, 1×PBS pH 7.4, 0.002% Tween 20 and 0.005% sodium azide) for 1 hr at room temperature. The plates were then coated with a 1 µg/mL biotinylated B-NGF solution in ELISA buffer for 1 hour at room temperature. This was followed by a wash step (3× using PBS plus 0.05% Tween 20) and a second block with ELISA buffer. The recombinant antibodies or Fabs were then added onto the plates and incubated for 1 hour at room temperature and then washed 3× with PBS/Tween solution. For development, an anti-human Fc-HRP or an anti-human Fab-fragment HRP (1:5000 dilution in ELISA buffer) was added onto the wells and incubated for 45 min at RT. After a 3× wash step with PBS/Tween solution, the plate was developed using TMB substrate for 3 minutes, stopped using 0.5M HCl, and read at 450 nm.

[2] = target: T1, Homo sapiens Beta-Nerve Growth Factor …; test: Antigen binding ELISA: biotinylated NGF on neutravidin plates, anti-human Fc-HRP, OD 450 nm
Experimental: as §1

T1 sequence (P01138 122-241): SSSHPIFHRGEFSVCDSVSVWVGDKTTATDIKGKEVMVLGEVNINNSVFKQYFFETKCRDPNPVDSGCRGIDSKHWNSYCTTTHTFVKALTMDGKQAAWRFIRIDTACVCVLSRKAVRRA

| Binder | EC50 [1] [nM] | EC50 (read off the curve) [1] [nM] | EC50 [2] [nM] | EC50 (read off the curve) [2] [nM] |
| --- | --- | --- | --- | --- |
| Antibody fragment Fab1 (Fab, V domains shown) VH: EVQLVESGGGLVQPGGSLRLSCAASGFTVSNYAVGWVRQAPGKGLEWVGIIGRNGNTWYASSARGRFTISRDNSKNTLYLQMNSLRAEDTAVYYCARGYGRSVAYYVFNIWGPGTLVTVSS VL: DIQMTQSPSTLSASVGDRVTITCQASQSIYSNLAWYQQKPGKAPKLLIYDASTLESGVPSRFSGSGSGTEYTLTISSLQPDDFATYYCQQGFTVSDIDNAFGGGTKVEIKR | 0.4 | ~0.04 |  |  |
| Antibody fragment Fab2 (Fab, V domains shown) VH: EVQLVESGGGLVQPGGSLRLSCAASGFTVSNYAVGWVRQAPGKGLEWVGIIGRNGNTWYASSARGRFTISRDNSKNTLYLQMNSLRAEDTAVYYCARGYGRSVAYYVFNIWGPGTLVTVSS VL: DIQMTQSPSTLSASVGDRVTITCQASQSIYSNLAWYQQKPGKAPKLLIYDASTLESGVPSRFSGSGSGTEYTLTISSLQPDDFATYYCQQGFTVSDIDNAFGGGTKVEIKR | 0.8 | ~0.08 |  |  |
| Antibody Ab3 (antibody, human IgG1, kappa, N297A, V domains shown) VH: QSVEESGGRLVTPGTPLTLTCTVSGFSLSSYVMIWVRQAPGKGLEYIGITWSAGTYYASWAKGRFTISKTSSTTVDLKITSPTTEDTATYFCAGGGGSIYDIWGPGTLVTVSS VL: AVLTQTPSPVSAAMGDTVTIKCQSSQSVYKNNYLSWYQQKPGQPPRLLIYDASNLPSGVPSRFSGSGSGTQFTLTISGVQCDDAATYYCLGDYDDDADNAFGGGTEVVVKR |  |  | 0.257 | ~0.3 |
